Data as given in patent US20220119450A1 (UNIVERSITY OF TARTU, published 2022).
No end group written: not given here. FAM = 5(6)-carboxyfluorescein; Ahx = NCCCCCC(=O)O

T1: recombinant His-tagged tenascin-C C domain (TNC-C)
T1 construct: 112 amino acids, expressed in E. coli from pET28a+ with N-terminal His-tag
T1 chain: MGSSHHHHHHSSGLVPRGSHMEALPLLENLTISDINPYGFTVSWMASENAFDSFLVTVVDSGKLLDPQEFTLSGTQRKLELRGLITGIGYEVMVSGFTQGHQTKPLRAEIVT

B1: synthetic FAM-labeled PL1 peptide (peptide)
peptide: {FAM-Ahx}-PPRRGLIKLKTS-OH
notes: Immobilized on ELISA plate and probed with His-tagged recombinant proteins; also called FAM-PL1
B2: Fn-EDB-selected peptide phage clone 2, TKRKGKG (peptide)
peptide: TKRKGKG
B3: Fn-EDB-selected peptide phage clone 24, VHERTRI (peptide)
peptide: VHERTRI
B4: Fn-EDB-selected peptide phage clone 3, GLGGRRIKLKTS (peptide)
peptide: GLGGRRIKLKTS
B5: PL2 peptide displayed on T7 phage (TSKQNSR) (peptide)
peptide: TSKQNSR
notes: also called phage PL2 peptide
B6: Fn-EDB-selected peptide phage clone 4, GRRGRVIKLKTSEPPQ (peptide)
peptide: GRRGRVIKLKTSEPPQ
B7: Fn-EDB-selected peptide phage clone 10, GTRRRSRINLAAALE (peptide)
peptide: GTRRRSRINLAAALE
B8: Fn-EDB-selected peptide phage clone 17, KVKKRGA (peptide)
peptide: KVKKRGA
B9: Fn-EDB-selected peptide phage clone 33, RESRRGRVKLAAALE (peptide)
peptide: RESRRGRVKLAAALE
B10: TNC-C-selected peptide phage clone 44 (Seq ID No. 37) (peptide)
peptide: RGRLRRVE
B11: TNC-C-selected peptide phage clone 2, CRGVLRRAKLAAALE (peptide)
peptide: CRGVLRRAKLAAALE
B12: TNC-C-selected peptide phage clone 35, RRLVRVA (peptide)
peptide: RRLVRVA
B13: TNC-C-selected peptide phage clone 4, CSRRGILRAKPAAALE (peptide)
peptide: CSRRGILRAKPAAALE
B14: TNC-C-selected peptide phage clone 36, CQRMGVVGAKLAAALE (peptide)
peptide: CQRMGVVGAKLAAALE
B15: TNC-C-selected peptide phage clone 46, GRLTRVR (peptide)
peptide: GRLTRVR
B16: TNC-C-selected peptide phage clone 1, AGVGRLRRAKLAAALE (peptide)
peptide: AGVGRLRRAKLAAALE
B17: TNC-C-selected peptide phage clone 5, AGRGRLVRAKLAAALE (peptide)
peptide: AGRGRLVRAKLAAALE
B18: TNC-C-selected peptide phage clone 30, VGRVRFSRKLAAALE (peptide)
peptide: VGRVRFSRKLAAALE
B19: TNC-C-selected peptide phage clone 45, RGRLVRA (peptide)
peptide: RGRLVRA
B20: PL3-functionalized silver nanoparticles (biotinylated PL3 peptide on NeutrAvidin-coated AgNPs) (peptide)
peptide: AGRGRLVR
modifications: not fully specified (N-terminus); also: biotinylated, site not given here, bound to NeutrAvidin on dye-labeled PEGylated silver nanoparticles
notes: Multivalent display on nanoparticles; also called PL3-AgNPs; AgNP-PL3
B21: PL5 peptide displayed on T7 phage (PPRRGLIKLKTSSNTKENSVVASLRP) (peptide)
peptide: PPRRGLIKLKTSSNTKENSVVASLRP
modifications: not fully specified (N-terminus); also: displayed on T7 phage capsid protein
notes: 26-aa peptide at the C-terminus of the T7 major capsid protein, arisen by a frameshift; also called PL5 phage

What follows are binders tested against T2, recombinant His-tagged fibronectin extra domain B (FN-EDB) (assay: ELISA: immobilized FAM-PL1 probed with His-tagged protein, anti-His-tag antibody, HRP).
T2 construct: 112 amino acids, expressed in E. coli from pET28a+ with N-terminal His-tag; also called fibronectin EDB-domain
Experimental: (§1) The FAM-labeled peptides were coated on ELISA plates (Nunc Maxisorp, Thermo Fisher Scientific Inc., MA, USA), blocked with PBS containing 1% BSA, and incubated with recombinant proteins at 2 μg/well in PBS for 6 h. The protein was detected using an anti-His-tag antibody, followed by horseradish peroxidase-conjugated secondary antibody, chromogenic reaction, and measurement of absorbance at 450 nm with a microplate reader (Tecan Austria GmbH, Grödig, Austria).
(§2) Immobilized FAM-PL1 was probed with recombinant His-tagged EDB and TNC-C (or control BSA), followed by sequential incubation with rabbit anti-His-tag primary antibody, secondary goat anti-rabbit HRP antibody and a chromogenic peroxidase reaction.

Binder	binding result
B1	binds

Target: T1, recombinant His-tagged tenascin-C C …
Test: as above
Experimental: as §1, §2

Binder	binding result
B1	binds

These binders were tested against T2, recombinant His-tagged fibronectin … (assay: T7 peptide phage binding to recombinant Fn-EDB, fold over heptaglycine (G7) control phage).
Experimental: The first panning round were performed on Fn-EDB immobilized on Costar 96-Well enzyme-linked immunosorbent assay (ELISA) plate (#3590, Corning Life Sciences, Tewksbury, Mass., USA). The plate was coated with 20 μg/ml recombinant Fn-EDB in 100 μl of PBS overnight at 4° C., followed by blocking with 1% bovine serum albumin (BSA) in PBS overnight at 4° C. The phage library solution (5×10⁸ pfu in 100 μl of PBS-BSA) were incubated overnight at 4° C., followed by 6 wash with PBS+BSA+0.1% Tween 20 to remove non-specifically bound background phages, and by phage rescue and amplification in E. coli strain BLT5403 (Novagen, EMD Biosciences, MA, USA) (Teesalu et al., 2012). The consequent rounds of selection were performed on Ni-NTA Magnetic Agarose Beads (QIAGEN, Hilden, Germany) coated with His-6X tagged Fn-EDB (30 μg/10 μl beads) at room temperature for 1 hour in 400 μl of PBS. The Fn-EDB immobilized beads were washed three times with PBS+BSA+0.1% NP40, followed by incubation of previous round phage (5×10⁸ pfu in 100 μl of PBS+BSA+0.1% NP40) for 1 hour at room temperature. The unbound/weakly bound phage removed by rinsing six times with PBS+BSA+0.1% NP40, binding phage were eluted with 1 ml of PBS+500 mM Imidazole+0.1% NP40. The recovered phage was tittered and amplified for a subsequent round of selection.
For cell-free binding studies using individually amplified phage clones; phage was incubated with Fn-EDB coated magnetic beads as described above. RPARPAR phage on NRP-1-coated beads was used as a positive control (Teesalu et al., 2009), Nucleolin (NCL) and Tenascin C—C domain (TNC-C) were used as negative control. Phage clones displaying heptaglycine peptide (GGGGGGG, G7 (SEQ ID NO:20)) or insert less phage clones were used as negative controls.

Binder	Fold over G7 [fold]
B2	58
B3	1
B4	2060
B5	89
B6	1180
B7	1560
B8	44
B9	209

Target: T1, recombinant His-tagged tenascin-C C …
Test: T7 peptide phage binding to recombinant TNC-C, fold over control heptaglycine phage
Experimental: Throughout our screens, the phage recovered during a round of selection was amplified using plate amplification protocol (Teesalu et al., 2012). The 1st and 4th round of biopanning were performed on TNC-C immobilized on Costar 96-Well ELISA plate (#3590, Corning Life Sciences, Tewksbury, Mass., USA). Briefly, the multiwell plate was coated with 20 μg/ml recombinant TNC-C in 100 μl of PBS overnight at 4° C., followed by blocking with 1% bovine serum albumin (BSA) in PBS overnight at 4° C. The phage library solution (5×10⁸ pfu in 100 μl of PBS-BSA) were incubated overnight at 4° C., followed by 6 washes with PBS+1% BSA+0.1% Tween 20 to remove non-specifically bound background phages, and by phage rescue and amplification in E. coli strain BLT5403 (Novagen, EMD Biosciences, MA, USA) (Lingasamy, P. et al., Biomaterials 119373. 2019). The subsequent rounds of selection were performed on Ni-NTA Magnetic Agarose Beads (QIAGEN, Hilden, Germany) coated with His-6X tagged TNC-C (30 μg/10 μl beads) at room temperature for 1 hour in 400 μl of PBS. The TNC-C immobilized beads were washed three times with PBS+1% BSA+0.1% NP40, followed by incubation of previous round phage (5×10⁸ pfu in 100 μl of PBS+1% BSA+0.1% NP40) to TNC-C coated beads for 1 hour at room temperature. The unbound/weakly bound (background) phages were removed by rinsing six times with PBS+1% BSA+0.1% NP40, and the bound phages were eluted with 1 ml of PBS+500 mM Imidazole+0.1% NP40.
The recovered phage was tittered and amplified for a subsequent round of selection. […] RPARPAR phage on NRP-1-coated beads was used as a positive control (Teesalu et al., 2009). Phage clones displaying heptaglycine peptide (GGGGGGG, G7 (SEQ ID NO:20)) or insert less phage clones were used as negative controls.

Binder	TNC-C binding (fold G7 control phage) [fold]
B10	886
B11	5960
B12	1220
B13	4890
B14	3930
B15	115
B16	3260
B17	5780
B18	3700
B19	737

What follows are binders tested against T3, NRP-1 on NRP-1-positive cells (U87-MG glioma, PPC1 prostate carcinoma; U87-MG xenograft tumors) (UniProt O14786 22-923, limits assumed) (assay: nanoparticle binding and uptake on cultured cells, confocal imaging).
T3 construct: whole, on cells; in xenografts mouse NRP-1 is also present
T3 sequence (O14786 22-923 limits assumed): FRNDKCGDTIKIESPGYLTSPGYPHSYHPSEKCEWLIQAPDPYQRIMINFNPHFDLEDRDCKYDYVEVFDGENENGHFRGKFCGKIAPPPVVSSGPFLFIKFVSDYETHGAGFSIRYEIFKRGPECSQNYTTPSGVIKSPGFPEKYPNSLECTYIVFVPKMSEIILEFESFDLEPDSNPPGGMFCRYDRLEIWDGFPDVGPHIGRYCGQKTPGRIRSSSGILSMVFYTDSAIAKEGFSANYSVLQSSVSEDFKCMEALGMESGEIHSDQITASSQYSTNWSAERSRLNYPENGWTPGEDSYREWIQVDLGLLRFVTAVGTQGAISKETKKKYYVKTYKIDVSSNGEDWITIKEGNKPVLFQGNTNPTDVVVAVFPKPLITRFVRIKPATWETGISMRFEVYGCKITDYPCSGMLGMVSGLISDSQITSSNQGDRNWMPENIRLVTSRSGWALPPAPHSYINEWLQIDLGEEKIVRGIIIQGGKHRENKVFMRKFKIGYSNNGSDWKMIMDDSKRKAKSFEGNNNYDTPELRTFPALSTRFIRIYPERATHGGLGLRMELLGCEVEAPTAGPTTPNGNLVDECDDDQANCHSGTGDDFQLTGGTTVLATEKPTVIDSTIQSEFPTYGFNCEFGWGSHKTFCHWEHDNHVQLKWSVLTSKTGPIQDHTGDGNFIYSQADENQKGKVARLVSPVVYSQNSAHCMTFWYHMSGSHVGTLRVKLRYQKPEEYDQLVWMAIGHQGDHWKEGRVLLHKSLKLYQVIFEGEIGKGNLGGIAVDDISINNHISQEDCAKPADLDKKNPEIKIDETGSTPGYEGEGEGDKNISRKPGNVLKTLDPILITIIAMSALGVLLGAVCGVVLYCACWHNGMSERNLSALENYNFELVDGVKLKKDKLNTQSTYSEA
Experimental: U87-MG, PPC1, and M21 cells cultured on glass coverslips were incubated with CF555-labeled AgNPs at 37° C. for 1 hour, followed by washing with medium to remove background AgNPs. Etching solution freshly diluted from 0.2 M stock solutions of Na₂S₂O₃ and K₃Fe(CN)₆ to 10 mM working concentration in PBS was applied to cells for 3 minutes, followed by PBS washes. The cells on coverslips were fixed with −20° C. methanol for 1 minute. The cell membrane was visualized by staining with Alexa Fluor 488-labeled wheat germ agglutinin (WGA) at 1:1000 at RT for 1 h. Nuclei were stained with 4′,6-diamidino-2-phenylindole (DAPI, Molecular Probes) at 1 μg/mL. Fluoromount-G (Electron Microscopy Sciences) medium was used to mount the coverslips on microscope slides for confocal imaging.
Many cultured tumor cell lines overexpress NRP-1 and internalize peptides with active CendR motif. The uptake of CF555-labeled PL3-AgNPs in NRP-1-positive U87-MG glioma and PPC1 prostate carcinoma cells, and in NRP-1-negative M21 melanoma cells was investigated. The dye-labeled AgNP cores are well suited for fluorescence imaging as the AgNP increases the brightness of the surface-bound dye by about an order of magnitude by plasmonic enhancement. The AgNPs labeled with CF647 dye were coated with neutravidin (NA) and PEGylated, creating a stable colloid ready for coating with biotinylated peptides. […]

Binder	binding result
B20	binds

The binders below were run against T2, recombinant His-tagged fibronectin … (assay: binding specificity, T7 peptide phage).
Experimental: (§3) To identify bispecific peptides that interact with both TNC-C and FN-EDB, cross screens were performed on both targets. During the first round of selection, microtiter plates coated with 20 μg/ml recombinant purified TNC-C were blocked with PBS containing 1% bovine serum albumin (BSA), followed by incubation with 5×10⁸ pfu of phages in PBS at 4° C. overnight, by washes to remove background, and by phage rescue and amplification in BLT5403 strain of E. coli (Novagen, EMD Biosciences, MA, USA) (Teesalu et al., Methods Enzymol. 503:35-56 (2012)). The following rounds of biopanning were carried on Ni-NTA Magnetic Agarose Beads (QIAGEN, Hilden, Germany) coated with hexahistidine-tagged FN-EDB (3 μg/μl beads) at room temperature. After 5 rounds of selection, a set of random clones was sequenced, and individual peptide-phage clones and control (G7 peptide-displaying or insertless) phages were incubated with FN-EDB and TNC-C-coated magnetic beads. RPARPAR phage (SEQ ID NO:5) and His-tagged NRP-1 b1b2 domain were used as positive control (Teesalu et al., Proc. Natl. Acad. Sci. U.S.A 106:16157-62 (2009)). To address the specificity of the peptide phage binding to the FN-EDB and TNC-C, the protein-coated beads were pre-incubated with 20 μg/ml blocking rabbit polyclonal antibodies.
as §2

Binder	binding result
B21	binds

Target: T1, recombinant His-tagged tenascin-C C …
Test: binding specificity, T7 peptide phage
Experimental: as §3, §2

Binder	binding result
B21	binds
